Data from paper doi:10.1101/2023.02.09.527835 (bioRxiv, 2023).

Molecular target: human complement C3a (human, UniProt P01024 672-748)
Assay: cryo-EM structure

human complement C3a, sequence (P01024 672-748): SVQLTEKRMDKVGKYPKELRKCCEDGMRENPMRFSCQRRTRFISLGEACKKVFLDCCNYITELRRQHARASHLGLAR

B1: human complement C3a receptor (C3aR), full-length, FLAG-M4(2-23)-C3aR construct for cryo-EM (receptor, UniProt P08173 2-23, looked up)
chain: ANFTPVNGSSGNQSVRLVTSSSMASFSAETNSTDLLSQPWNEPPVILSMVILSLTFLLGLPGNGLVLWVAGLKMQRTVNTIWFLHLTLADLLCCLSLPFSLAHLALQGQWPYGRFLCKLIPSIIVLNMFASVFLLTAISLDRCLVVFKPIWCQNHRNVGMACSICGCIWVVAFVMCIPVFVYREIFTTDNHNRCGYKFGLSSSLDYPDFYGDPLENRSLENIVQPPGEMNDRLDPSSFQTNDHPWTVPTVFQPQTFQRPSADSLPRGSARLTSQNLYSNVFKPADVVSPKIPSGFPIEDHETSPLDNSDAFLSTHLKLFPSASSNSFYESELPQGFQDYYNLGQFTDDDQVPTPLVAITITRLVVGFLLPSVIMIACYSFIVFRMQRGRFAKSQSKTFRVAVVVVAVFLVCWTPYHIFGVLSLLTDPETPLGKTLMSWDHVCIALASANSCFNPFLYALLGKDFRKKARQSIQGILEAAFSEELTRSTHCPSNNVISERNSTTV
modifications: alkylated with iodoacetamide
B1: binds.
